Experimental data from US20240100180A1 (SOTIO BIOTECH A S, published 2024).
Residue numbers refer to the chain shown, from its start.

B1: hCL1a-LC-G2-PNU (antibody, human IgG1, kappa)
heavy: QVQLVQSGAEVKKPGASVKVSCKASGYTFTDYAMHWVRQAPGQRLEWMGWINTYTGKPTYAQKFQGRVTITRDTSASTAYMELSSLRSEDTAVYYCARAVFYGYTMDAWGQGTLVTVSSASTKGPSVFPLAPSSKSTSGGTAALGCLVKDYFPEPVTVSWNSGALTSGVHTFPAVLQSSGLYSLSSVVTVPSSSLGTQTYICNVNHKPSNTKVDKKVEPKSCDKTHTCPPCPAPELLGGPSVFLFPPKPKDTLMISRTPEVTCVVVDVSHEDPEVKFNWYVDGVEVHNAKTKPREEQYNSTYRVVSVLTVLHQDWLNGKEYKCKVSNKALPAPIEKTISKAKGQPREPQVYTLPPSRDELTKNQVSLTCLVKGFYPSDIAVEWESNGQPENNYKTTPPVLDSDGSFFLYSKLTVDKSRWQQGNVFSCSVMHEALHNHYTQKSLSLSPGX
light: DIQMTQSPSSLSASVGDRVTITCRASEDIYSNLAWYQQKPGKAPKLLIFSVKRLQDGVPSRFSGSGSGTDFTLTISSLQPEDFATYYCLQGSNFPLTFGQGTKVEIKRTVAAPSVFIFPPSDEQLKSGTASVVCLLNNFYPREAKVQWKVDNALQSGNSQESVTEQDSKDSTYSLSSTLTLSKADYEKHKVYACEVTHQGLSSPVTKSFNRGECGGGGSLPQTGG
modifications: PNU-159682 linked through ethylenediamine to the C-terminal Gly of the GGGGSLPQTGG tag
B2: hCL1j-LC-G2-PNU (antibody, human IgG1, kappa)
heavy: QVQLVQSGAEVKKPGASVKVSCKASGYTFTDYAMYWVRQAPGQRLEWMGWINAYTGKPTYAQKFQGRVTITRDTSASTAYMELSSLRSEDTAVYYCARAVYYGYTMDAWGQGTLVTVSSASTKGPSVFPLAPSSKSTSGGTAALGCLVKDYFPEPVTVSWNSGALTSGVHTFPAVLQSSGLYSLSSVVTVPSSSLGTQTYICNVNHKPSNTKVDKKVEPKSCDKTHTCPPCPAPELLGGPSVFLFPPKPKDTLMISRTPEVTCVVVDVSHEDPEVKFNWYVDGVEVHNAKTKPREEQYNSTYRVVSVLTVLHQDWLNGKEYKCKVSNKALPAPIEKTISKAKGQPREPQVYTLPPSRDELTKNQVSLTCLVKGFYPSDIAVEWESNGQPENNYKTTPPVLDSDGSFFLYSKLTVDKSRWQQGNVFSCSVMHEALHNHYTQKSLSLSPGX
light: B1 light with A25T, S50A, V51I, N93K
modifications: PNU-159682 linked through ethylenediamine to the C-terminal Gly of the GGGGSLPQTGG tag
B3: hCL1b-LC-G2-PNU (antibody, human IgG1, kappa)
heavy: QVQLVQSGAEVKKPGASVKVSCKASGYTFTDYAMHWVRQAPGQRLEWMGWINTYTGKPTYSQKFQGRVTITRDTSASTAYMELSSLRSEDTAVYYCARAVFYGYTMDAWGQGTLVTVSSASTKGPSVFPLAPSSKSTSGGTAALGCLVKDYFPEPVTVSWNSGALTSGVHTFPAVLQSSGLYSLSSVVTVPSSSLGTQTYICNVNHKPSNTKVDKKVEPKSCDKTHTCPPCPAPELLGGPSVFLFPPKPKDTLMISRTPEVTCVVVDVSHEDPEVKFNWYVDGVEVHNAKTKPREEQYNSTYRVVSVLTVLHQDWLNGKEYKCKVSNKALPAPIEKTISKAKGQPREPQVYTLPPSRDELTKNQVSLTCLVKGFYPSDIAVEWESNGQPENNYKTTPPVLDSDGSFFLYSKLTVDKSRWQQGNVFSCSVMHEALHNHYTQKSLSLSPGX
light: B1 light
modifications: PNU-159682 linked through ethylenediamine to the C-terminal Gly of the GGGGSLPQTGG tag
B4: hCL1h-LC-G2-PNU (antibody, human IgG1, kappa)
heavy: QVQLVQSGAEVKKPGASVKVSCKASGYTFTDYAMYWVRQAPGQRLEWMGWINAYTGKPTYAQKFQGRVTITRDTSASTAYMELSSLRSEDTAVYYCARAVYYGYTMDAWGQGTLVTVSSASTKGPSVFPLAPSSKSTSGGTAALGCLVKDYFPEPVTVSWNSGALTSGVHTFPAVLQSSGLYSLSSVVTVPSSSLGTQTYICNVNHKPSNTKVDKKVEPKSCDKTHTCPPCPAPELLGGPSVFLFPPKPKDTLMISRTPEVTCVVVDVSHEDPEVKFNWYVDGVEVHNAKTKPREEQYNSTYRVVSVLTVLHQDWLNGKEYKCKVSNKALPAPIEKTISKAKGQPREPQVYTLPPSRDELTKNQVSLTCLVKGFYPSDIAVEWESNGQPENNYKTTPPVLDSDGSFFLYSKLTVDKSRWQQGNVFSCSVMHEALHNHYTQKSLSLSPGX
light: B1 light with F49Y
modifications: PNU-159682 linked through ethylenediamine to the C-terminal Gly of the GGGGSLPQTGG tag
B5: hCL1e-LC-G2-PNU (antibody, human IgG1, kappa)
heavy: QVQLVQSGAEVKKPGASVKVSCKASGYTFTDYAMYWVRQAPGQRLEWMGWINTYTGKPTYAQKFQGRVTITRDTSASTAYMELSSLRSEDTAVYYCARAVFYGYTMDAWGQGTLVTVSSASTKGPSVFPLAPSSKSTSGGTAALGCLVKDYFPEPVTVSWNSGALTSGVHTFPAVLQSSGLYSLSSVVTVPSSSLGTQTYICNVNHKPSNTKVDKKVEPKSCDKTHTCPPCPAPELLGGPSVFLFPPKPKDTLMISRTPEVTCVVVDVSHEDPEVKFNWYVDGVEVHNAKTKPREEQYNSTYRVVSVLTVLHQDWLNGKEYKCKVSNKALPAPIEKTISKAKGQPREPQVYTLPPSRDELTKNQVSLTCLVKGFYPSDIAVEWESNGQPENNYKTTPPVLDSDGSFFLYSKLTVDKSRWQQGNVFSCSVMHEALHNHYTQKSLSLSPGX
light: B1 light
modifications: PNU-159682 linked through ethylenediamine to the C-terminal Gly of the GGGGSLPQTGG tag
B6: hCL1d-LC-G2-PNU (antibody, human IgG1, kappa)
heavy: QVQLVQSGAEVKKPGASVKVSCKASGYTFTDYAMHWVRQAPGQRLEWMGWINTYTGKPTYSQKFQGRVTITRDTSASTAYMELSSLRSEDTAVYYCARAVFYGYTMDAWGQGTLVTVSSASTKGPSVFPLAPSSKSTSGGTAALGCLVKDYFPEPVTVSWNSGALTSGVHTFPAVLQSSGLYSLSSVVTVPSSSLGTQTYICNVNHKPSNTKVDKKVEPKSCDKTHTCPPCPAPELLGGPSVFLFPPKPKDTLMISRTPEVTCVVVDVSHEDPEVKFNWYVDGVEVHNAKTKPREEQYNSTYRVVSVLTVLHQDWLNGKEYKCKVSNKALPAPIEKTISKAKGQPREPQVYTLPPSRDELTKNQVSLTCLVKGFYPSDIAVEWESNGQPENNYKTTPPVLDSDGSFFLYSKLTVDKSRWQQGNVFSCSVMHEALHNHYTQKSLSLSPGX
light: B1 light with A25T, L33F, F49Y, K52N, N93K
modifications: PNU-159682 linked through ethylenediamine to the C-terminal Gly of the GGGGSLPQTGG tag
B7: hCL1f-LC-G2-PNU (antibody, human IgG1, kappa)
heavy: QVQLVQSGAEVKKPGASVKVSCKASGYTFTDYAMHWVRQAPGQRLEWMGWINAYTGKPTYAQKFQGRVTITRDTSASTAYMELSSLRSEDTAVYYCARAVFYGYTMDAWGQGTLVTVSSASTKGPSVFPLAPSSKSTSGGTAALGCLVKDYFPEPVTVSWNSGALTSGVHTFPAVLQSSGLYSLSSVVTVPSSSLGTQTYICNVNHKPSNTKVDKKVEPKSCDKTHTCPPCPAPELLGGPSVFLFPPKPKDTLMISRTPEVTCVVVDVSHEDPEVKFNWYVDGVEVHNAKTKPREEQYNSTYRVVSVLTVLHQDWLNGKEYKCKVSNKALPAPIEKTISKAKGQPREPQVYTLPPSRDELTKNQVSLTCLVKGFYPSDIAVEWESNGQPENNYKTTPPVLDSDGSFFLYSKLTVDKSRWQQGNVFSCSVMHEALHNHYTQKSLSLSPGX
light: B1 light with F49Y
modifications: PNU-159682 linked through ethylenediamine to the C-terminal Gly of the GGGGSLPQTGG tag
B8: hCL1i-LC-G2-PNU (antibody, human IgG1, kappa)
heavy: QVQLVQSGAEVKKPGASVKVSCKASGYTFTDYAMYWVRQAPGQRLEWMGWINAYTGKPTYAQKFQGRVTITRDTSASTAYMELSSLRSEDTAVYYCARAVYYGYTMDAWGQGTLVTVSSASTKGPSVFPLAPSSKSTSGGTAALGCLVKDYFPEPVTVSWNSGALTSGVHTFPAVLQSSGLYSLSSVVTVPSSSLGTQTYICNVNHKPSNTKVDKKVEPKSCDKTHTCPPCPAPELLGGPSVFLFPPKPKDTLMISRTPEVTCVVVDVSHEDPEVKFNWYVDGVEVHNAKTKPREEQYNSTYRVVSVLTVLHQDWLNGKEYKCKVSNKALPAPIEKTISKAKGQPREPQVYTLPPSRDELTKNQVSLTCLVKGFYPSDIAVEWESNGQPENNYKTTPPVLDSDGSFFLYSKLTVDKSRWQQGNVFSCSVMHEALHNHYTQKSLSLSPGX
light: B1 light
modifications: PNU-159682 linked through ethylenediamine to the C-terminal Gly of the GGGGSLPQTGG tag
B9: hCL1g-LC-G2-PNU (antibody, human IgG1, kappa)
heavy: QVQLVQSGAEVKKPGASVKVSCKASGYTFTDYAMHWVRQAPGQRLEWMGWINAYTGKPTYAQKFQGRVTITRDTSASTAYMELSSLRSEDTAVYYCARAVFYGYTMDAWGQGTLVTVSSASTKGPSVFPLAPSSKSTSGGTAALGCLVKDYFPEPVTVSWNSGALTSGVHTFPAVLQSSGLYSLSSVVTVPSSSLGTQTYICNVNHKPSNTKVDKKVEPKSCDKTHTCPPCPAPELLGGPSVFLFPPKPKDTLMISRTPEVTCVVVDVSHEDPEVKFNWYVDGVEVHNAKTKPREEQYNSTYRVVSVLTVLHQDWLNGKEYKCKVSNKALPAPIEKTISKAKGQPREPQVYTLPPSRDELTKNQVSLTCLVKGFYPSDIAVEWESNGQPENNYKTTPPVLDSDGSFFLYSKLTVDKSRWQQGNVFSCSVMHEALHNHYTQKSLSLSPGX
light: B1 light with A25T, L33F, F49Y, K52N, N93K
modifications: PNU-159682 linked through ethylenediamine to the C-terminal Gly of the GGGGSLPQTGG tag
B10: hCL1c-LC-G2-PNU (antibody, human IgG1, kappa)
heavy: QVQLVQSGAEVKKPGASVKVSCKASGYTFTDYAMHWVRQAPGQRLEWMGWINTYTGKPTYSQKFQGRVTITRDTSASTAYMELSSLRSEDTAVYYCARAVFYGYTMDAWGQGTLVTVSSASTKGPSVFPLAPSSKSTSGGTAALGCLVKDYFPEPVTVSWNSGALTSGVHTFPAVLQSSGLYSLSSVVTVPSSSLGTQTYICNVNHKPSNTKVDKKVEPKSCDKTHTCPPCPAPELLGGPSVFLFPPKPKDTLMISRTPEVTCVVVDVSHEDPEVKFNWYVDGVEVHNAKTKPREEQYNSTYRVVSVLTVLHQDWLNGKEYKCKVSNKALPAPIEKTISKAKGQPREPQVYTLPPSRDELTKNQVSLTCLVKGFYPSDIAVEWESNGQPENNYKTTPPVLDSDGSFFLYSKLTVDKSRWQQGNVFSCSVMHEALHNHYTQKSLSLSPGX
light: B1 light with A25T, S50A, V51I, N93K
modifications: PNU-159682 linked through ethylenediamine to the C-terminal Gly of the GGGGSLPQTGG tag
B11: cCl1-1 (antibody, V domains shown)
VH: QIQLVQSGPELKKPGESVKISCKASGYTFTDYAMHWVKQAPGKGLKWMGWINTYTGKPTYADDFKGRFVFSLEASASTANLQISNLKNEDTATYFCARAVFYGYTMDAWGQGTSVTVSS
VL: DIQMTQSPASLSASLGETISIACRASEDIYSNLAWYQQKSGKSPQLLIFSVKRLQDGVPSRFSGSGSGTQYSLKISGMQPEDEGDYFCLQGSNFPLTFGSGTKLEIK
notes: Chimeric antibody from rat hybridoma, detected with anti-human IgG
B12: cCl1-2 (antibody, V domains shown)
VH: B11 VH with A24T, A40G, L45M, T53A, F70L, F101Y, T116I
VL: B11 VL with A22E, A25T, L33F, Y36F, F49Y, K52N, N93K
notes: as for B11
B13: cCl1-3 (antibody, V domains shown)
VH: B11 VH with H35Y, A40V, K46R
VL: B11 VL with A25T, S50A, V51I, N93K
notes: as for B11

target: human CLDN18.2 (Claudin 18.2) expressed on cells (human); assay: cell-based or functional assay

| Binder | EC50 of in-vitro cytotoxicity, A549-CLDN18.2 cells (head of c2) [ng/mL] |
| --- | --- |
| B1 | 4.8 |
| B2 | 5.3 |
| B3 | 6.4 |
| B4 | 3.3 |
| B5 | 4.3 |
| B6 | 11.6 |
| B7 | 14 |
| B8 | 3.8 |
| B9 | 70.7 |
| B10 | 30 |

target: T1, human CLDN18.2 (Claudin 18.2) expressed on cells (human); assay: % positive tumor cells divided by % positive healthy stomach cells, flow cytometry, mouse 2
T1 construct: also called huCLDN18.2; hCLDN18.2
Description: (§1) Two Balb/c mice were implanted subcutaneously with 1×10⁶ A549 cells expressing CLDN18.2 in 100 μl of 50% Matrigel and tumors growth was monitored over a few weeks until the tumor reached the desired size between 150-450 mm³. Healthy stomach tissue and tumor tissue was collected for FC analysis. The collected tissues were cut into small pieces and digested with the Miltenyi tumor dissociation kit (MACS Miltenyi Biotec, Germany). Tissue pieces were incubated with dissociation buffer (prepared according to the manufacturer instruction) in 6 well plates for 30 min in 37° C. under permanent gentle rocking motion. Samples were resuspended and strained through a 70 μm cell strainer (Corning, USA) followed by a wash with 20 ml FC buffer (PBS+2% FBS). Cell suspensions were centrifuged (5 min at 400 g for 4° C.) and the supernatants were discarded. If needed, cell suspensions were passed through a strainer and centrifuged repeatedly and pellets resuspended in 5 ml of red blood cell lysis buffer (Biolegend, USA), incubated on ice for 4 min. After incubation, 25 ml of PBS was added, and the suspensions were centrifuged again (5 min at 400 g for 4° C.). Pellets were resuspended in FC buffer (0.5-3 ml based on pellets). Equal number of cells were transferred into 96 well plates and further processed for FC analysis. […]

| Ratio tumor/stomach | Binder |
| --- | --- |
| 50 | B11 |

target: T1, human CLDN18.2 (Claudin 18.2) expressed …; assay: % positive tumor cells divided by % positive healthy stomach cells, flow cytometry, average
Description: as §1

| Ratio tumor/stomach | Binder |
| --- | --- |
| 74.3 | B11 |

target: T2, human CLDN18.1 (Claudin 18.1) expressed on cells (human, UniProt P56856 1-261); assay: flow cytometry, L11 cells overexpressing huCLDN18.1 (FIG. 4)
T2 construct: whole, on cells; Isoform 1 (lung isoform) of CLDN18; also called huCLDN18.1; hCLDN18.1
T2 sequence (P56856 whole entry, canonical isoform): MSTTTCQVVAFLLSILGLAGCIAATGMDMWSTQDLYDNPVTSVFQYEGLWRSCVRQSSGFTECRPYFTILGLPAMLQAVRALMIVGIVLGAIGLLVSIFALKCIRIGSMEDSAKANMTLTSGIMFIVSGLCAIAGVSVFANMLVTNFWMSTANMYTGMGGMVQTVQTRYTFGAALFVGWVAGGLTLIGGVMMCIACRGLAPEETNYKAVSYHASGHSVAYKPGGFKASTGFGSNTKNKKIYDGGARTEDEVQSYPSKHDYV
Description: The cells were stained on ice for 30 min using the antibodies at 2 μg/ml and, upon washing in PBS/2% FCS, stained with anti-human IgG (Fc gamma-specific) PE goat antibody (eBioscience) as secondary antibody for 30 min on ice.

| binding result | Binder |
| --- | --- |
| no binding (tested: 2 µg/ml) | B11 |
| no binding (tested: 2 µg/ml) | B12 |
| no binding (tested: 2 µg/ml) | B13 |

target: T1, human CLDN18.2 (Claudin 18.2) expressed …; assay: % positive tumor cells divided by % positive healthy stomach cells, flow cytometry, mouse 1
Description: as §1

| Ratio tumor/stomach | Binder |
| --- | --- |
| 92.5 | B11 |
